Data: IntAct's records for PubMed 21858081

Target: tppc9_human TRAPPC9 (UniProt Q96Q05)
Sequence (Q96Q05 whole entry): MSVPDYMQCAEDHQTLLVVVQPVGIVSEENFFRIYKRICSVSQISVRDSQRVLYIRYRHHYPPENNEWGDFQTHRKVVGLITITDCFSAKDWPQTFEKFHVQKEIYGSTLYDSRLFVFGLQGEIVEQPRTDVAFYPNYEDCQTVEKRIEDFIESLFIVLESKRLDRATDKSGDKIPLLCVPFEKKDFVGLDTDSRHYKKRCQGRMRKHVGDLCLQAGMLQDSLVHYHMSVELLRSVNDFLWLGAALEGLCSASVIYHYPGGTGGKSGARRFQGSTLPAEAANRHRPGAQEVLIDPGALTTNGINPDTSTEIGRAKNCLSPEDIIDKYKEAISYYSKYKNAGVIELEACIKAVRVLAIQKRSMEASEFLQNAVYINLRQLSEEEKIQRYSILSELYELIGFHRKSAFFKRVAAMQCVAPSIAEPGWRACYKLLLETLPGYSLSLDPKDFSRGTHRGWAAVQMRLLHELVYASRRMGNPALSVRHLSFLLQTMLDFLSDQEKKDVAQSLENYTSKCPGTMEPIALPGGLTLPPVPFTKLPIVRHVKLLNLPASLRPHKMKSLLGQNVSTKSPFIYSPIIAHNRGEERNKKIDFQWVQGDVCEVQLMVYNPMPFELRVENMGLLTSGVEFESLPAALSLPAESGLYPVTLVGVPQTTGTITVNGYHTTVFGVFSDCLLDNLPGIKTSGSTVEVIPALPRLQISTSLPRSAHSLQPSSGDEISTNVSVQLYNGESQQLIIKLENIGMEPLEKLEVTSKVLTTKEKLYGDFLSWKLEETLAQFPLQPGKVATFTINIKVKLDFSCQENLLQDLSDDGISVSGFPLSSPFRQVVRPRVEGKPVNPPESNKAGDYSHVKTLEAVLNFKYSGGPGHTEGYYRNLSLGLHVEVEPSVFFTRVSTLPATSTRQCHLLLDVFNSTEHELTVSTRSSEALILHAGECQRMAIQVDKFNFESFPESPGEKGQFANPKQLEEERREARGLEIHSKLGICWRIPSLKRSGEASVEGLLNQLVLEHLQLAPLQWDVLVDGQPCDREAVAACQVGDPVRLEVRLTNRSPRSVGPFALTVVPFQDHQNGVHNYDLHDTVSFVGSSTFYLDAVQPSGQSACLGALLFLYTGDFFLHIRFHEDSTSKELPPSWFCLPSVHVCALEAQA

effect of a mutation on the interaction: decreasing interaction strength
Substance: Trafficking protein particle complex subunit 2 (Mus musculus) (from UniProt Q9CQP2) D47Y
